The results in this text go back to paper PMC9895041, “Molecular evolutionary insight of structural zinc atom in yeast xylitol dehydrogenases and its application in bioethanol production by lignocellulosic biomass” (Scientific Reports, 2023).

As usually defined, the stoichiometry N is a count of units in the complex or per binding partner. In general, Km refers to the substrate concentration at which the rate is half of its maximum. A word on the kcat: it is the number of substrate molecules converted per active site and unit of time at saturation. As usually defined, the kcat/Km is the second-order rate constant that governs catalysis at low substrate concentration.

Residue numbers refer to the chain shown, from its start. Names may count otherwise.

Data set [1] deals with the molecule itself. The experiment in a line: SEC; analytical size-exclusion chromatography of PsXDHC4 in solution.
Substrate in the data set “purified protein”: OC[C@@H](O)[C@H](O)[C@@H](O)CO
The experiment in a line: purified protein. To be noted: 1-10 mM xylitol, 1.5 mM NAD+, 50 mM Tris-HCl pH 8.0, 30 °C.

Data set [2] concerns the molecule itself. Description: SEC; gel filtration of the sample purified by Ni-NTA (HiLoad 16/600 Superdex 200 pg, 20 mM Tris-HCl pH 8.0, 150 mM NaCl). In general terms: SEC sorts molecules by how far they enter the pores of the column.

B1: PsXDHC4 mutant (xylitol dehydrogenase from Pichia stipitis, S96C/S99C/Y102C) (enzyme)
chain: TANPSLVLNKIDDISFETYDAPEISEPTDVLVQVKKTGICGSDIHFYAHGRIGNFVLTKPMVLGHESAGTVVQVGKGVTSLKVGDNVAIEPGIPCRFCDECKSGHYNLCPHMAFAATPNSKEGEPNPPGTLCKYFKSPEDFLVKLPDHVSLELGALVEPLSVGVHASKLGSVAFGDYVAVFGAGPVGLLAAAVAKTFGAKGVIVVDIFDNKLKMAKDIGAATHTFNSKTGGSEELIKAFGGNVPNVVLECTGAEPCIKLGVDAIAPGGRFVQVGNAAGPVSFPITVFAMKELTLFGSFRYGFNDYKTAVGIFDTNYQNGRENAPIDFEQLITHRYKFKDAIEAYDLVRAGKGAVKCLIDGPE
notes: xylitol dehydrogenase (XDH) of Pichia stipitis (Scheffersomyces stipitis), encoded by the PICST_86924 gene, cloned into pQE-81L; the model holds Thr2-Pro362 (Ser121-Gly124 not built); source: E. coli DH5α, purified (Ni-NTA, Superdex 200)
Consider B1, for which the “stoichiometry N” value in data set [1] is 4.

B2: SpXDH C103D mutant (enzyme, Schizosaccharomyces pombe, UniProt P36624 1-360, looked up)
chain: MAPAEKAFVLRKKMDTAIEDRPGQTLTDDHQVKVAIKATGICGSDVHYWKEGGIGDFILKKPMILGHESAGVVVEVGKGVSSLKPGDPVAVEPGCVCRLCDYDRSGRYNLCPHMEFAATPPYDGTLRTYYITTEDFCTKLPKQISVEEGALFEPMSVAVHAMTRGNLKCGSRVLVMGCGTVGLLMMAVAKAYGAIDIVAVDASPSRVEFAQKYVGAKPFTPIAAKENESLPDYAQRYKQAIIEKYGEFDFAVDATGVGICIHTAVLALKRGGTFVQAGNGKPVIDFPINHIINYEINVLGSFRYAHGCYKQSLFLVSNGLVDVKPLITHRFAFKDALKAYETVASGEEGVLKVIIGGPDA
notes: SPBC1773.05c protein of S. pombe (SpXDH), cloned into pQE-81L; source: E. coli DH5α, purified (Ni-NTA)
Take B2: in “purified protein”, the Km was determined as 10.5 ± 0.7 mM, the kcat was determined as 7.82 s⁻¹ and the kcat/Km was determined as 743 M⁻¹ s⁻¹. In addition, the “stoichiometry N” value in data set [2] amounted to 4.

B3: SpXDH wild type (xylitol dehydrogenase, SPBC1773.05c protein from Schizosaccharomyces pombe) (enzyme, UniProt P36624 1-360, looked up)
chain: B2 chain with D103C
notes: cloned into pQE-81L; also called SpXDHWT; WT; source: E. coli DH5α, purified (Ni-NTA)
For B3, in “purified protein”, the Km was determined as 6.10 ± 0.34 mM, the kcat was determined as 6.95 s⁻¹ and the kcat/Km turned out to be 1140 M⁻¹ s⁻¹. In data set [2], the “stoichiometry N” value is 4.
